Assay [1] concerns goat anti-Amb a I antibody. Nature of the assay: Western blot of E. coli-expressed recombinant Amb a I / Amb a II with goat anti-Amb a I antibody (FIG. 19). In kind it is binding. The protocol: Furthermore, full-length and truncated cDNAs encoding several members of the Amb a I multigene family, as well as Amb a II, were cloned in-frame into the expression vector pTrc99 (Amann et al. Gene, 69:301-315, (1988)) and transformed into the JM109 host. Expression of recombinant Amb a I and Amb a II protein was induced by 1 mM isopropyl-β-D-thiogalactopyranoside, cells were harvested, lysozyme treated, sonicated and insoluble inclusion bodies recovered by a low speed centrifugation. Recombinant Amb a I and Amb a II protein present in the recovered pellet was solubilized in buffer containing 8M urea, 50 mM Tris HC1 pH8.0, 50 mM NaCl, 1 mM EDTA, 1 mM dithiothreitol, 1 mM phenylmethylsulfonyl fluoride. After solubilization, the crude urea lysate was dialyzed at 4° C. against PBS. […] This antigenic cross-reactivity is consistent with the observed sequence homology of the cDNAs (see FIG. 16).
Isoelectric focusing was done on a Hoeffer gel apparatus with 15 μg of crude soluble pollen protein. The gel consisted of 7.5% acrylamide with 3.5% Pharmalytes pH 4.5-5.3 (Pharmacia) and 3.5% Ampholines pH 3.5-10 (LKB), run at 13W for 3.5 hours until a constant voltage was reached. The gel section was placed on a slab of 10% acrylamide SDS-PAGE and electrophoresed for 3.5 hours at 40 mA according to the protocol cited. The proteins were transferred overnight in phosphate buffer to 0.1 micron nitrocellulose (Schleicher and Schuell) at 0.2A. The blot was rinsed in blot solution (25 mM Tris-CHl pH 7.5, 0.171 M NaCl, 0.05% Tween-20; Sigma). The first antibody incubation was overnight at room temperature with a […] of goat anti-Amb a I IgC (obtained from Dr. David Marsh) in blot solution. The excess first antibody was removed with three 15 minute rinses with blot solution. The second antibody was a 1:2,500 dilution of biotinylated swine anti-goat IgG (Boehringer-Manneheim) in blot solution for two hours. The blot was then rinsed with blot solution three times for 15 minutes and incubated for 1 hr in blot solution with 2 μCi I^125 streptavidin (Amersham). The blots were rinsed with blot solution until the waste wash was down to background. The blot was then exposed to film at —80° C. overnight. In the case of one-dimensional SDS-PAGE Western blots (FIGS. 17, 19 and 20) the isoelectric focusing step was omitted. When human sera was used to probe the Western blots (FIGS. 17 and 20), 10% human plasma in 1% milk in blot solution was incubated overnight with the blot prior to using as second antibody biotinylated goat anti-human IgE.
A general note: In western blotting, separated proteins are transferred to a membrane and probed.

Assay [2] has as its system T cells from patients allergic to ragweed. Briefly: T cell proliferation of ragweed allergic patient T cells to ragweed proteins and recombinant lysates (tritiated thymidine). It counts as cell-based, human. Particulars: for T cell recognition and proliferation (in words): T cells previously stimulated with mixed ragweed pollen extract, summary of Table 4. The text has this: T cells from patients allergic to ragweed, previously stimulated with a mixed ragweed pollen extract, can recognize and proliferate in response to pollen extract, ragweed skin test reagent (RWST), affinity purified Amb a I protein and crude bacterial lysates containing recombinant Amb a I gene products IA, IB and IC (Table 4). […] The use of crude bacterial lysates as antigens precludes a firm conclusion form the negative responses, since the relative levels of recombinant proteins in lysate have not been determined.
Peripheral blood mononuclear cells (PBMC) were purified from 60 ml of heparinized blood from ragweed-allergic patients. PBMC were subsequently treated as described below, although in individual cases, the length of time of cultivation with IL-2 and IL-4 and the specific ragweed proteins and peptides used for stimulation varied. As an example, ten ml of patient 222 PBMC at 10^6/ml were cultured at 37° C. for 7 days in the presence of 20 micrograms aqueous ragweed pollen extract/ml RPMI-1640 supplemented with 5% pooled human AB serum. Viable cells were purified by Ficoll-Hypaque centrifugation and cultured for three weeks at 5 units recombinant human IL-2/ml and 5 units recombinant human IL-4/ml. The resting T cells were then restimulated (secondary) with 20 micrograms aqueous ragweed pollen extract/ml at a density of 2×10^5 cells/ml in the presence of X-irradiated (3500 RADS) autologous PBMC (5×10^5/ml) for three days, purified by Ficoll-Hypaque centrifugation and grown in 5 units IL-2/ml and 5 units IL-4/ml for two weeks. For assay, 2×10^4 resting secondary T cells were restimulated (tertiary) in the presence of 5×10^4 X-irradiated (3500 RADS) autologous PBMC or 2×10^4 autologous Epstein-Barr virus-transformed B cells (20,000 RADS) with various concentrations of allergen or their fragments in a volume of 200 microliters in 96-well round bottom assay plates for 3 days. Each well then received 1 microCurie tritiated (methyl) thymidine for 16 hours. The counts incorporated were collected onto glass fiber filters and processed for liquid scintillation counting. […] Antigens used: IPC aqueous pollen extract (pollen), Hollister-Stier ragweed skin test extract (RWST), ALK cat epithelium skin test extract (CST), affinity 4B5/B7 antibody purified (dialyzed) Amb a I (B7), and chromatographically purified Amb a I and (Amb a I). Medium only control is shown as a line with no symbol. Alternatively, PBMC were sometimes carried only into a secondary assay (as outlined above for a tertiary assay) with 20 micrograms aqueous pollen extract 7 days, followed by culture in 5 units IL-2/ml and 5 units IL-4/ml for 2-3 weeks. […] Secondary and tertiary assays of a panel of ragweed allergic patients were performed using synthetic peptides derived from the sequences of various ragweed pollen proteins. […] Another four peptides (RAE15.6, RAE3.D, RAE28.1, RAE26.15) which are also derived from the sequence of the same three cDNA's could stimulate 35 to 58% of the patients' T cells. One peptide (RAE4) which is derived from the cDNA of IPC Clone 5 could also stimulate 25% of the patients' T cells. […] By this method it is possible to identify novel therapeutic and diagnostics entities for use in the treatment and the diagnosis of ragweed allergy.

For assay [3], the system named is rabbit antisera directed against an Amb a II sequence (amino acid 326-338; RAE 50. K). Briefly: Western blot of recombinant proteins with monospecific anti-peptide antisera against RAE 50. K. Particulars: Western blots, data not shown. In kind it is binding. The source says: Proteins or peptides encoded by the cDNA of the present invention can be used, for example, as “purified” allergens. Such purified allergens are useful in the standardization of allergen extracts which are key reagents for the diagnosis and treatment of ragweed allergy. Furthermore, by using peptides based on the sequences listed in FIGS. 2 through 16, anti-peptide antisera or monoclonal antibodies can be made using standard methods. Such reagents can be specifically directed against individual isoforms of Amb a I or Amb a II (i.e., directed against divergent regions/epitopes of the molecule) or can be specific for all forms Amb a I or Amb a II (i.e, directed against common sequences/epitopes). These sera or monoclonal antibodies, directed against Amb a I or Amb a II, can be used to standardize allergen extracts. One such monospecific anti-peptide antisera has already been successfully produced.

The mark [4] stands for this setting: patient 151 2° (secondary assay).
The mark [5] stands for this setting: patient 222 2° (secondary assay).
Where [6] appears, read: patient 274 2° (secondary assay).
The mark [7] stands for this setting: patient 296 2° (secondary assay).
Where [8] appears, read: patient 314 2° (secondary assay).
The mark [9] stands for this setting: patient 316 2° (secondary assay).
Where [10] appears, read: patient 319 2° (secondary assay).
[11] abbreviates: patient 321 2° (secondary assay).

B1: Amb a IC: E. coli expressed recombinant Amb a IC, used as crude bacterial lysate (protein)
chain: LYFTLALVALLQPVRSAEGVGEILPSVNETRSLQACEALNIIDKCWRGKADWENNRQALADCAQGFAKGTYGGKWGDVYTVTSNLDDDVANPKEGTLRFAAAQNRPLWIIFKNDMVINLNQELVVNSDKTIDGRGVKVEIINGGLTLMNVKNIIIHNINIHDVKVLPGGMIKSNDGPPILRQASDGDTINVAGSSQIWIDHCSLSKSFDGLVDVTLGSTHVTISNCKFTQQSKAILLGADDTHVQDKGMLATVAFNMFTDNVDQRMPRCRFGFFQVVNNNYDRWGTYAIGGSSAPTILCQGNRFLAPDDQIKKNVLARTGTGAAESMAWNWRSDKDLLENGAIFVTSGSDPVLTPVQSAGMIPAEPGEAAIKLTSSAGVFSCRPGAPC
In the case of B1, the “Binding by goat anti-Amb a I antibody (in words)” value in assay [1] is listed as “binds specifically”. In assay [2], the “T cell recognition and proliferation (in words)” value is reported as “proliferate”. In addition, the “Stimulatory response of human T cells (proliferation compared to medium control)” value in assay [2] (setting [4]) is “+ (2-4 fold)”; in assay [2] (setting [5]), “++ (4-10 fold)”; in assay [2] (setting [6]), “++ (4-10 fold)”; in assay [2] (patient 295 2° (secondary assay)), “+ (2-4 fold)”; in assay [2] (setting [7]) it was “+++ (>10 fold)”; in assay [2] (setting [8]) it was “+++ (>10 fold)”. The “Stimulatory response of human T cells (proliferation compared to medium control)” value in assay [2] (setting [9]) was “+++ (>10 fold)”; in assay [2] (setting [10]), “++ (4-10 fold)”; in assay [2] (setting [11]) it was “+ (2-4 fold)”. Besides, the “Binding by rabbit anti-RAE 50. K antisera (in words)” value in assay [3] was “not”.

B2: Amb a IA: full-length recombinant Amb a IA, amino acid 10-398, E. coli expressed, used as crude bacterial lysate (protein)
chain: LYFTLALVTLLQPVRSAEDLQEILPVNETRRLTTSGAYNIIDGCWRGKADWAENRKALADCAQGFGKGTVGGKDGDIYTVTSELDDDVANPKEGTLRFGAAQNRPLWIIFERDMVIRLDKEMVVNSDKTIDGRGAKVEIINAGFTLNGVKNVIIHNINMHDVKVNPGGLIKSNDGPAAPRAGSDGDAISISGSSQIWIDHCSLSKSVDGLVDAKLGTTRLTVSNSLFTQHQFVLLFGAGDENIEDRGMLATVAFNTFTDNVDQRMPRCRHGFFQVVNNNYDKWGSYAIGGSASPTILSQGNRFCAPDERSKKNVLGRHGEAAAESMKWNWRTNKDVLENGAIFVASGVDPVLTPEQSAGMIPAEPGESALSLTSSAGVLSCQPGAPC
With B2, the “Binding by goat anti-Amb a I antibody (in words)” value in assay [1] was “binds specifically”. Also, the “T cell recognition and proliferation (in words)” value in assay [2] is “proliferate”. In addition, the “Stimulatory response of human T cells (proliferation compared to medium control)” value in assay [2] (setting [4]) is on record as “(+) (2 fold)”; in assay [2] (setting [5]), “++ (4-10 fold)”. Further, the “Binding by rabbit anti-RAE 50. K antisera (in words)” value in assay [3] is given as “not”.

B3: affinity purified Amb a I: protein affinity purified from pollen extract with monoclonal antibody 4B5/B7 (protein)
chain: AEDLQEILPVNETRRLTTSGAYNIIDGCWRGKADWAENRKALADCAQGFGKGTVGGKDGDIYTVTSELDDDVANPKEGTLRFGAAQNRPLWIIFERDMVIRLDKEMVVNSDKTIDGRGAKVEIINAGFTLNGVKNVIIHNINMHDVKVNPGGLIKSNDGPAAPRAGSDGDAISISGSSQIWIDHCSLSKSVDGLVDAKLGTTRLTVSNSLFTQHQFVLLFGAGDENIEDRGMLATVAFNTFTDNVDQRMPRCRHGFFQVVNNNYDKWGSYAIGGSASPTILSQGNRFCAPDERSKKNVLGRHGEAAAESMKWNWRTNKDVLENGAIFVASGVDPVLTPEQSAGMIPAEPGESALSLTSSAGVLSCQPGAPC
With B3, the “T cell recognition and proliferation (in words)” value in assay [2] is “proliferate”. Besides, the “T cell response in secondary assay (in words)” value in assay [2] (one ragweed allergic patient, FIG. 21) is given as “responded”. Further, the “Stimulatory response of human T cells (proliferation compared to medium control)” value in assay [2] (setting [4]) was “(+) (2 fold)”; in assay [2] (setting [5]) it was “+++ (>10 fold)”; in assay [2] (setting [6]), “++ (4-10 fold)”; in assay [2] (setting [7]), “+++ (>10 fold)”; in assay [2] (setting [8]), “+++ (>10 fold)”; in assay [2] (setting [9]), “+++ (>10 fold)”. In addition, the figures for the “Stimulatory response of human T cells (proliferation compared to medium control)” value in assay [2] (setting [10]), in assay [2] (patient 320 2° (secondary assay)) and in assay [2] (setting [11]) were “++ (4-10 fold)”, “+++ (>10 fold)” and “+ (2-4 fold)”, respectively.

For the origin of these results see patent US6335019B1, “Methods for treating sensitivity to protein allergen using peptides which include a T cell epitope recognized by a T cell receptor specific for the protein allergen” (Immulogic Pharmaceutical Corp., priority 1989, dated 2002).
